Reference: publication PMC3695512, “Recognition of two distinct elements in the RNA substrate by the RNA-binding domain of the T. thermophilus DEAD box helicase Hera”
Substitutions are numbered along the chain they refer to.

Key:
Hera_RBD K455A = molecular target: T1, Hera_RBD K455A (Thermus thermophilus, UniProt O07897 424-510, K455A); test: fluorescence anisotropy; 5 mM Mg2+; Anisotropy: 50 mM Tris/HCl pH 7.5, 150 mM NaCl, 5 mM MgCl2 (Fig 2), 25 C, 50 nM RNA; EMSA: same Tris/NaCl, 12% glycerol, 25 C; NMR: 25 mM Bis-Tris/HCl pH 6.0, 50 mM NaCl, 10% D2O, 37 C; conditions: protein: recombinant; label: 5'-fluorescein; hairpin with 5' single strand
T1 sequence: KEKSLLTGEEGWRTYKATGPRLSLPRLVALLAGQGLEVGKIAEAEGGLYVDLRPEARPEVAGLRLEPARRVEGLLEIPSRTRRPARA

Hera_RBD R449A = molecular target: T2, Hera_RBD R449A (Thermus thermophilus, UniProt O07897 424-510, R449A); test: as above; conditions: protein: recombinant; label: 5'-fluorescein; hairpin with 5' single strand
T2 sequence: T1 sequence with R26A, A32K

Hera_208-419 (RecA_C_DD) = molecular target: T3, Hera_208-419 (RecA_C_DD) (Thermus thermophilus, UniProt O07897 208-419); test: fluorescence anisotropy; 5 mM Mg2+; compared with full-length Hera; Anisotropy: 50 mM Tris/HCl pH 7.5, 150 mM NaCl, 5 mM MgCl2 (Fig 2), 25 C, 50 nM RNA; EMSA: same Tris/NaCl, 12% glycerol, 25 C; NMR: 25 mM Bis-Tris/HCl pH 6.0, 50 mM NaCl, 10% D2O, 37 C; conditions: protein: recombinant; chain copies: 2; label: 5'-fluorescein; hairpin with 5' single strand
T3 sequence: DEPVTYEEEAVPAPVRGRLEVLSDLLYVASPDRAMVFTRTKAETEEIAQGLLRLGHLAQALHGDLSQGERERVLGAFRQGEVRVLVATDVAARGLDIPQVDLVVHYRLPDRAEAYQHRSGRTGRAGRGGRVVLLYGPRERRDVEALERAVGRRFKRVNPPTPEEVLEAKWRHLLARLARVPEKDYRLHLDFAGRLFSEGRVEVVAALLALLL

Hera_RBD A452C = molecular target: T4, Hera_RBD A452C (Thermus thermophilus, UniProt O07897 424-510, A452C); test: fluorescence anisotropy; 5 mM Mg2+; Anisotropy: 50 mM Tris/HCl pH 7.5, 150 mM NaCl, 5 mM MgCl2 (Fig 2), 25 C, 50 nM RNA; EMSA: same Tris/NaCl, 12% glycerol, 25 C; NMR: 25 mM Bis-Tris/HCl pH 6.0, 50 mM NaCl, 10% D2O, 37 C; conditions: protein: recombinant; label: 5'-fluorescein; hairpin with 5' single strand
T4 sequence: T1 sequence with A29C, A32K

Hera_RBD K463A = molecular target: T5, Hera_RBD K463A (Thermus thermophilus, UniProt O07897 424-510, K463A); test: fluorescence anisotropy; 5 mM Mg2+; text also says abolishes binding; Anisotropy: 50 mM Tris/HCl pH 7.5, 150 mM NaCl, 5 mM MgCl2 (Fig 2), 25 C, 50 nM RNA; EMSA: same Tris/NaCl, 12% glycerol, 25 C; NMR: 25 mM Bis-Tris/HCl pH 6.0, 50 mM NaCl, 10% D2O, 37 C; conditions: protein: recombinant; label: 5'-fluorescein; hairpin with 5' single strand
T5 sequence: T1 sequence with A32K, K40A

GST-Hera_RBD = molecular target: T6, GST-Hera_RBD (Thermus thermophilus, UniProt O07897 424-510); test: EMSA; 6 uM RNA; 12% glycerol; Anisotropy: 50 mM Tris/HCl pH 7.5, 150 mM NaCl, 5 mM MgCl2 (Fig 2), 25 C, 50 nM RNA; EMSA: same Tris/NaCl, 12% glycerol, 25 C; NMR: 25 mM Bis-Tris/HCl pH 6.0, 50 mM NaCl, 10% D2O, 37 C; conditions: protein: recombinant; tags: N-terminal GST; label: 5'-fluorescein; hairpin with 5' single strand
T6 sequence: T1 sequence with A32K

Binder: GCAGGUCCCAAGGGUUGGGCUGUUCGCCCAUU (structured_RNA) [32mer]
- binding signal (Hera_RBD K455A): < 5 fold Kd increase
- binding signal (Hera_RBD R449A): > 25 fold Kd increase
- binding signal (Hera_208-419 (RecA_C_DD)): ~70 fold Kd increase
- binding signal (Hera_RBD A452C): ~10 fold Kd increase
- binding signal (Hera_RBD K463A): > 25 fold Kd increase
- Kd (GST-Hera_RBD): ~7 µM
